The values below come from patent publication US20230212511A1.

Assay [1] deals with full length human TpoR (wild type), expressed on transduced cells (human) (UniProt P40238). Put plainly: cell-based or functional assay.
The target of assay [2] is mutant truncated (mt) TpoR, lacking the final five amino acids (human) (UniProt P40238). Put plainly: cell-based or functional assay.

As to “recombinant human Tpo (Miltenyi Biotec) (from UniProt P40225 22-195) (ligand)”, the enrichment of TpoR positive primary human T-cells (from 20% transduced) in the presence of Tpo (% TpoR positive) was determined as 87.5 in assay [1] and 77.9 in assay [2].
